The text below walks through data of the supplement of paper PMC9170038.

The subject of this data set is MS2 coat protein. The data set can be described thus: apparent KD of MS2 coat protein; designed switch direction (-1 OFF switch, 1 ON switch): 1; higher = weaker reporter binding. In a few lines:
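Designed RNA switches with common flanks were transcribed on Illumina chips by stalled E. coli RNA polymerase and titrated with SNAP-549-labelled MS2 coat protein, from 0.7 or 1.5 nM doubling to 3 µM, in Tris-HCl pH 7.5 buffer with KCl, MgCl2, BSA, DTT, tRNA and Tween-20. Steps lasted 0.8–1.5 h (lowest) to 10–20 min (highest). Titrations ran without input, with 200 uM small-molecule ligand, or with an oligonucleotide input. Normalised cluster fluorescence was curve-fitted, and apparent KD is the per-design median over clusters.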

Where [1] appears, read: input ligand: microRNA oligo, concentration not stated.
Setting [2] is: Eterna round: R95, input ligand: FMN 200 uM.
Setting [3] is: Eterna round: R95, input ligand: microRNA oligo, concentration not stated.
The mark [4] stands for this setting: Eterna round: R95, input ligand: none.

Consider “GUCCAAAACACAGGAUAUCCCAGUCAUGAUCUGGGAGAAGGGUGGCCACAUGAGGAUCACCCAUGUGAAGUGCCAGAGGCACGA [Xexeraed] (Eterna round: R96, puzzle: Same State NG 1)”, for which the “apparent KD of MS2 coat protein” value (input ligand: FMN 200 uM) was determined as 373 nM, the “apparent KD of MS2 coat protein” value under setting [1] is 876 nM and the “apparent KD of MS2 coat protein” value (input ligand: none) is 1020 nM.

Turning to “GCUCGCGGCACAGGAUAUGGGUGCCUGUACAUGAGGAUCACCCAUGUUAAGGGACGGAUUACGAACCAGAAGGGUGAGGCGGGC [Axearisar] (Eterna round: R96, puzzle: Same State NG 2)”, the “apparent KD of MS2 coat protein” value (input ligand: FMN 200 uM) worked out at 63.8 nM, the “apparent KD of MS2 coat protein” value under setting [1] came to 120 nM and the “apparent KD of MS2 coat protein” value (input ligand: none) stood at 768 nM.

As for “AACAGUCGGCGAGGAUAUGGACGUACAGGUUUGCCUGUGCGGCUCACAUGAGGAUCACCCAUGUUCUAGAAGGCGCCACUGUGA [Racearza] (Eterna round: R96, puzzle: Same State NG 2)”, the “apparent KD of MS2 coat protein” value reads like this: (input ligand: FMN 200 uM) 15.6 nM; under setting [1], 60 nM; (input ligand: none) 73.9 nM.

Turning to “AAUUAAUUAAUUAAUAUACAUGAGGAUCACCCAUGUAAGAUCAAGGAUAUCAGCUCGUUUAGAGCUGAGAAGGUGAUCACAUGU [SSNG3/16-A3] (Eterna round: R96, puzzle: Same State NG 3)”, the “apparent KD of MS2 coat protein” value (input ligand: FMN 200 uM) came out at 447 nM, the “apparent KD of MS2 coat protein” value under setting [1] came out at 156 nM and the “apparent KD of MS2 coat protein” value (input ligand: none) turned out to be 302 nM.

With “AAUCAACAUGAGGAUCACCCAUGUCACACAAAGUGAGGAUAUUGGAAAUAAAUAAUAAAACGAGAAGGCGCUGCGG [OBB] (puzzle: Same State 1)”, the “apparent KD of MS2 coat protein” value is, setting by setting: under setting [2], 26.6 nM; under setting [3], 44.5 nM; under setting [4], 60 nM.

As for “GCAGAACAUGAGGAUCACCCAUGUCUCUAAAGUCGAGGAUAUGGGCAGGUUAUAUCCGAACCAGAAGGCGAUCUGC [SS1 Teenbexe 13] (puzzle: Same State 1)”, under setting [3], the “apparent KD of MS2 coat protein” value was 108 nM.

In the case of “AGCUAGUACCGAGGAUAUACGUACAUGAGGAUCACCCAUGUAUACAUGAAUUAAUGAGACUACAUGUAGAAGGCGGUACUAGCA [Mat - Same State NG 2 - JL mod - D49] (Eterna round: R96, puzzle: Same State NG 2)”, the “apparent KD of MS2 coat protein” value under setting [1] turned out to be 34.3 nM.

In the case of “GCCUCUGCUCCACAGGAUAUGCGCUGUUGUACAUGAGGAUCACCCAUGUGCAGCCGACCAGAGCUGCAGAAGGGUGAGAGAGAGU [Atisanesxe] (puzzle: Same State 2)”, the “apparent KD of MS2 coat protein” value runs as follows: under setting [2], 28.6 nM; under setting [3], 253 nM; under setting [4], 243 nM.

With “AACCAACAAAUAAAACAAGCGUGCUCGUCACAUGAGGAUCACCCAUGUUUAAGCGCUAUUCCUACUUCCUCAGCGCC [Ininceisa] (puzzle: Sensor for hsa-mir-208a)”, the “apparent KD of MS2 coat protein” value turned out to be 104 nM under setting [2] and 97.7 nM under setting [4].

For “CGAAAGAAGCGAGGAUAUGCAGAGGAUCACCCUGCAGAAGGCGCAAAAGCGAGGAUAUGCAGAGGAUCACCCUGCAGAAGGCGC [pwkr ssNG DX.32] (Eterna round: R96, puzzle: Same State NG 1)”, the “apparent KD of MS2 coat protein” value is, setting by setting: (input ligand: FMN 200 uM) 20.2 nM; under setting [1], 20.5 nM; (input ligand: none) 18.1 nM.

On to “AAACAGCCCAACGGAGGGCCACAUGAGGAUCACCCAUGUACAUAGGAUAUCACGCCAACGAGGCGUGAGAAGGGUGAUUAAAAC [Inesteen] (Eterna round: R96, puzzle: Same State NG 3)”, for which the “apparent KD of MS2 coat protein” value runs as follows: (input ligand: FMN 200 uM) 18 nM; under setting [1], 51.2 nM; (input ligand: none) 53.9 nM.

As to “AAGGUCAAGAUAGGAUAUGUUUCAUGAUAGAUAACAGAAGGAUCUAGAACAUGAGGAUCACCCAUGUGGCACAUAGAGUGGUGA [Default title] (Eterna round: R96, puzzle: Same State NG 1)”, under setting [1], the “apparent KD of MS2 coat protein” value is 284 nM.

Consider “GGAGCCAAGGCAGGAUAUUCAUAUUAAUAACAUGAGGAUCACCCAUGUUGGGCCAGAAGGCCUUGGGAGAAGGGCCAUGGCUCG [Xeonanis - 13 mod17] (Eterna round: R96, puzzle: Same State NG 2)”, for which the “apparent KD of MS2 coat protein” value (input ligand: FMN 200 uM) was found to be 20.1 nM, the “apparent KD of MS2 coat protein” value under setting [1] is 24.7 nM and the “apparent KD of MS2 coat protein” value (input ligand: none) turned out to be 36.5 nM.

Take “UGACACACGGCAGGAUAUCGAUAGCAAAGCUAUCGAGAAGGGCCUCAUGUCGUGGAAACGUGACAUGAGGAUCACCCAUGUUGC [Omei SS(NG)1 Cv11] (Eterna round: R96, puzzle: Same State NG 1)”: the “apparent KD of MS2 coat protein” value runs as follows: (input ligand: FMN 200 uM) 280 nM; under setting [1], 8.42 nM; (input ligand: none) 51.4 nM.

“GGAGAGAGAGCGCAGGAUAUUUGAGGAGAAACAUGAGGAUCACCCAUGUGAGAGAGAGAGGAGAAAGAGAAGGGUGAGAGAGAGG [Altered State 2-15 - Jieux - Same State 2] (puzzle: Same State 2)”: the “apparent KD of MS2 coat protein” value amounted to 41.9 nM under setting [2], 52.9 nM under setting [3] and 57.8 nM under setting [4].

As for “AGCUAUCGAAAACGAUAGCAUAAGCUUGGACAUGAGGAUCACCCAUGUCAUGUACAAGCUUUUUGCUCGUCUUAAAA [JL zipper 29] (Eterna round: R96, puzzle: Sensor for hsa-mir-208a)”, the “apparent KD of MS2 coat protein” value runs as follows: (input ligand: FMN 200 uM) 32.3 nM; under setting [1], 11.9 nM; (input ligand: none) 34.5 nM.

Take “AGCCGAGACUGAGGAUAUAGAAAUCUACAUGAGGAUCACCCAUGUAGCAACACGUGGUAGUGAUUCUAGAAGGCGGCUCGGCGC [Omei SS(NG)2 Cv5] (Eterna round: R96, puzzle: Same State NG 2)”: the “apparent KD of MS2 coat protein” value by setting is: (input ligand: FMN 200 uM) 13.4 nM; under setting [1], 41.1 nM; (input ligand: none) 40.6 nM.

As for “AUAUGAGGAGCAGGAUAUGCGAAGAAGAAAGAAGCAGAAGGGCUCAUGGGACGACAUGAGGAUCACCCAUGUACUUCGCGAUGA [AK SSNG1-V2-6] (Eterna round: R96, puzzle: Same State NG 1)”, the “apparent KD of MS2 coat protein” value (input ligand: FMN 200 uM) turned out to be 133 nM, the “apparent KD of MS2 coat protein” value under setting [1] was 278 nM and the “apparent KD of MS2 coat protein” value (input ligand: none) is 538 nM.

“CGCAUCCUUGUUACAUGAGGAUCACCCAUGUUUUCGAGUGGAGAGGAUAUCGUAACAGUAUUUUUCGAGAAGGCUCUAUAGUUU [JR_SSNG3_Sub080] (Eterna round: R96, puzzle: Same State NG 3)”: the “apparent KD of MS2 coat protein” value runs as follows: (input ligand: FMN 200 uM) 41.7 nM; under setting [1], 37.6 nM; (input ligand: none) 56.9 nM.

On to “GGAGCCGGUACUGAGGAUAUUCAUAUUAAAACAUGAGGAUCACCCAUGUAGGCCAGAAGGCCUUGGGAGAAGGCGGACCAGCUCG [Atgexeedri - 1] (puzzle: Same State 2)”, for which the “apparent KD of MS2 coat protein” value worked out at 18.8 nM under setting [2], 283 nM under setting [3] and 414 nM under setting [4].

“AGAUCAUGACGAGGAUAUGGAACAUGAGGAUCACCCAUGUAUGUUCCAUAACGCGAAUAAAGAAUCCAGAAGGCGUCGUGAUCA [Mat - Same State NG 2 - JL mod - D31] (Eterna round: R96, puzzle: Same State NG 2)”: the “apparent KD of MS2 coat protein” value (input ligand: FMN 200 uM) turned out to be 13.1 nM, the “apparent KD of MS2 coat protein” value under setting [1] was 52.5 nM and the “apparent KD of MS2 coat protein” value (input ligand: none) came to 85.5 nM.

Take “CGACACACGGCAGGAUAUCGAUUCCAAAGGAAUCGAGAAGGGCCUCAUGUCGUGGAAACGUGACAUGAGGAUCACCCAUGUCGC [Omei SS(NG)1 Cv17] (Eterna round: R96, puzzle: Same State NG 1)”: the “apparent KD of MS2 coat protein” value is 17.2 nM (input ligand: FMN 200 uM), 11 nM under setting [1] and 16.9 nM (input ligand: none).

On to “ACAAUCUGGGUAGGAUAUCUAGGAUAUGGGAAAGACUAAGUCUGUAGGUCACCUAACCCAGAUGGAGAGAAGGACCCAACACAC [pwkr ssNG2 2FMN + F9.43] (Eterna round: R96, puzzle: Same State NG 2)”, for which the “apparent KD of MS2 coat protein” value is, setting by setting: (input ligand: FMN 200 uM) 95.8 nM; under setting [1], 3.94 nM; (input ligand: none) 202 nM.

Take “ACAUGAGAGUCAGGAUAUAUUGUACCUACAUGUGACAUGAGGAUCACCCAUGUGGUAAGUAUGACAUAGAAGGGAUAGAUAUGU [Equivalance 85 - Jieux - Same State NG 2] (Eterna round: R96, puzzle: Same State NG 2)”: the “apparent KD of MS2 coat protein” value runs as follows: (input ligand: FMN 200 uM) 62.7 nM; under setting [1], 60.4 nM; (input ligand: none) 79.2 nM.

Take “UAGAACAAGCUUUUUGCCCGUCUUAUAUAACAUGAGGAUCACCCAUGUAAGGUGAAAGUUAGAGAGUGGAGGAAGAA [JR_SHM208A_Sub053] (puzzle: Sensor for hsa-mir-208a)”: the “apparent KD of MS2 coat protein” value amounted to 95.3 nM under setting [2], 272 nM under setting [3] and 123 nM under setting [4].

For the sequence “UUUAGUUGCGGGCAGGAUAUGUAUUAAAAUACAUGAGGAUCACCCAUGUGUGGGUAUAACACCCAACAGAAGGGCCAAUCGCGAC [Laonerce - 12] (Eterna round: R96, puzzle: Same State 2)”, the “apparent KD of MS2 coat protein” value under setting [1] was found to be 94.4 nM.

“AGUCCAGCCUGAGCUGGACAAAAGCAUGUACAUGAGGAUCACCCAUGUCAUGUACAAGCUUUUUGCUCGUAUUAAAA [Mat - hsa-mir-208a - Mod of JL - D9] (puzzle: Sensor for hsa-mir-208a)”: the “apparent KD of MS2 coat protein” value came to 362 nM under setting [2], 15.4 nM under setting [3] and 574 nM under setting [4].

Regarding “UGUUGUAUUACAGGAUAUCUAGUAUUUUUACUUAGAGAAGGGUAUUCACAUGAGGAUCACCCAUGUAUAUACGAGGAAGUUGUG [JMF's solution 50] (Eterna round: R96, puzzle: Same State NG 1)”, under setting [1], the “apparent KD of MS2 coat protein” value stood at 22.9 nM.

On to “GUGGUCAGACAUGAGGAUCACCCAUGUGGAAUAAAUAAGGAGAAGGAUAUGGAAUAUAGGAUAUACCAGAAGGUCUGGUUGGUG (Eterna round: R96, puzzle: Same State NG 3)”, for which the “apparent KD of MS2 coat protein” value under setting [1] turned out to be 55.8 nM.
